# Paper doi:10.1101/546648
# Biological target: OrnVc (oligoribonuclease) (Vibrio cholerae O1 El Tor?) (UniProt Q9KV17)
# Test: DRaCALA
# Settings: 5' phosphate
substance,measurement,value
"pGpG (GG, 2-mer)",Kd,0.09 µM
